Data set [1] relates to Mu-EHSSKLQ-AMC (Glu-His-Ser-Ser-Lys-Leu-Gln; SEQ ID NO:10).
The subject of data set [2] is Mu-SKLQ-AMC (Ser-Lys-Leu-Gln; SEQ ID NO:1).
Data set [3] has as its system Mu-HSSKLQ-AMC (His-Ser-Ser-Lys-Leu-Gln; SEQ ID NO:7).
For data set [4], the system named is Mu-ENKISYQ-AMC (Glu-Asn-Lys-Ile-Ser-Tyr-Gln; SEQ ID NO:12).
The test system of data set [5] is Mu-ATKSKQH-AMC (Ala-Thr-Lys-Ser-Lys-Gln-His; SEQ ID NO:13).
Data set [6] has as its system Mu-QNKISYQ-AMC (Gln-Asn-Lys-Ile-Ser-Tyr-Gln; SEQ ID NO:11).
Data set [7] concerns Mu-EHSSKLQ-AMC (Glu-His-Ser-Ser-Lys-Leu-Gln; SEQ ID NO:10). Nature of the data set: fluorogenic AMC-release kinetics, Lineweaver-Burke plot.
The subject of data set [8] is Mu-SKLQ-AMC (Ser-Lys-Leu-Gln; SEQ ID NO:1). The description is as above.
Data set [9] has as its system Mu-HSSKLQ-AMC (His-Ser-Ser-Lys-Leu-Gln; SEQ ID NO:7). Described as above.
The subject of data set [10] is Mu-ATKSKQH-AMC (Ala-Thr-Lys-Ser-Lys-Gln-His; SEQ ID NO:13). The description is as above.

Here are results for 12 substances from US6545131.

What is called Km is the concentration of substrate that gives half-maximal velocity.

tissue plasminogen activator (TPA), sequence (P00750 36-562): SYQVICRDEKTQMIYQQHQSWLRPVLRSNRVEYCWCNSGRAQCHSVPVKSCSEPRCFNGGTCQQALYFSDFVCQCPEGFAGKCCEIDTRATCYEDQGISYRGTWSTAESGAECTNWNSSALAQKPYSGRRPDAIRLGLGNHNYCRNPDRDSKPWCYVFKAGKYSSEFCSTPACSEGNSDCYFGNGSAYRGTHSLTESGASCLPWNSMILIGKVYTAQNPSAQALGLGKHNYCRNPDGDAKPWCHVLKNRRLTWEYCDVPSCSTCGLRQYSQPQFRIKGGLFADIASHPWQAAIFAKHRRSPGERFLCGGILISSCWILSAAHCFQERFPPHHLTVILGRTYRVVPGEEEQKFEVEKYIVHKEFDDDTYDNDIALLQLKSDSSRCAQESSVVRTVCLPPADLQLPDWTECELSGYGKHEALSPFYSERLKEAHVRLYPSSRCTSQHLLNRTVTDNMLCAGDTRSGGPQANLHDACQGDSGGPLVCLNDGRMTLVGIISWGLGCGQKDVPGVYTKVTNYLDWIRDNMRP
plasmin, sequence (P00747 20-580): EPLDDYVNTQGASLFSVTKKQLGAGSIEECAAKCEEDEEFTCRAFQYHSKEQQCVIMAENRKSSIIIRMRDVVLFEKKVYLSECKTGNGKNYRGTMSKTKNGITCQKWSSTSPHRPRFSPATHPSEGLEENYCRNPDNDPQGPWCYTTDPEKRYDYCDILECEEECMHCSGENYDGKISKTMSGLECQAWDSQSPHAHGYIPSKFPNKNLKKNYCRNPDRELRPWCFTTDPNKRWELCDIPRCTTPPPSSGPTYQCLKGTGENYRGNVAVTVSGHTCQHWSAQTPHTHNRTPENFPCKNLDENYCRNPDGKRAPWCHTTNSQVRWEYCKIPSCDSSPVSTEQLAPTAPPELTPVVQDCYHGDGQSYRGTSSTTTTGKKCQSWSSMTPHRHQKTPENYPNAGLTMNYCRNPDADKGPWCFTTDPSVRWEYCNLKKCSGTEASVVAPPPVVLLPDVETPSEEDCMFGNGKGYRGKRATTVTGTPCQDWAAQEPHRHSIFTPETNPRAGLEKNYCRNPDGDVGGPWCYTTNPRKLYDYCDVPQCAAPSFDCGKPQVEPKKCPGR
plasmin, sequence (P00747 581-810): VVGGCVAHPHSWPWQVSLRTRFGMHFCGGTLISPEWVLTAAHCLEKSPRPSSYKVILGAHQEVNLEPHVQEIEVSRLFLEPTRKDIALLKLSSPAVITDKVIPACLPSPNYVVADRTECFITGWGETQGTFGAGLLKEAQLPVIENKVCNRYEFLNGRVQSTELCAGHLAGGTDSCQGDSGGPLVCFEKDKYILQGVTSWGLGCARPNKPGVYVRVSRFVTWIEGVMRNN

For Cathepsin B, the peptide cleavage rate (AMC release) (pmol/min/200 pmol protease) in [1] is 4.3; with Mu-LQ-AMC it was 190; in [2] it was 31.2; in [3] it was 17.3; in the data set on Mu-KLQ-AMC, 87.
In the case of Cathepsin C, the peptide cleavage rate (AMC release) (pmol/min/200 pmol protease) (in data set [1]; in the data set on Mu-LQ-AMC; in data set [2]; in data set [3]; in the data set on Mu-KLQ-AMC) was below 0.1 throughout.
In the case of Cathepsin D, the peptide cleavage rate (AMC release) (pmol/min/200 pmol protease) in data set [1] came out at 2.2; in the data set on Mu-LQ-AMC it was 20; in data set [2] it was 6.4; in data set [3], 3.8.
Take chymotrypsin: the substrate cleavage rate (AMC release) (pmol/min/200 pmol protease) is below 0.1 in data set [1], 3.6 in [4], 38.8 in data set [5] and 9 in data set [6].
As to elastase, the substrate cleavage rate (AMC release) (pmol/min/200 pmol protease) was below 0.1 in [1], 2.6 in data set [4], below 0.1 in data set [5] and 9 in data set [6].
As for human kallikrein, hK1, the substrate cleavage rate (AMC release) (pmol/min/200 pmol protease) in [1], in [4] and in data set [5] was below 0.1 throughout.
As for plasmin, the substrate cleavage rate (AMC release) (pmol/min/200 pmol protease) is below 0.1 in data set [1], 0.6 in [4], below 0.1 in data set [5] and below 0.1 in data set [6].
As to porcine liver esterase, the peptide cleavage rate (AMC release) (pmol/min/200 pmol protease) (in data set [1]; in the data set with Mu-LQ-AMC; in data set [2]; in data set [3]; in the data set on Mu-KLQ-AMC) was below 0.1 throughout.
Take prostate specific antigen (PSA): the Michaelis constant (Km) in data set [7] stood at 1160 µM; in data set [8] it was 813 µM; in data set [9], 470 µM; in [10], 310 µM. Besides, the Kcat in data set [1] is 0.02 s⁻¹; in data set [2] it was 0.02 s⁻¹; in [3], 0.011 s⁻¹; in data set [5], 0.0091 s⁻¹. Further, the Kcat/Km in [1] was 10.6 s^-1M^-1; in data set [2], 24.6 s^-1M^-1; in data set [3] it was 23.6 s^-1M^-1; in data set [5], 6.9 s^-1M^-1. For the same substance, the peptide cleavage rate (AMC release) (pmol/min/200 pmol protease) in [1] was 31.6; with Mu-LQ-AMC, below 0.1; in data set [2], 29.6; in data set [3] it was 62.7; with Mu-KLQ-AMC, 0.4. The substrate cleavage rate (AMC release) (pmol/min/200 pmol protease) in [1] is 31.6; in data set [4] it was 14.4; in data set [5], 16; in [6], 16.8.
As to thrombin, the substrate cleavage rate (AMC release) (pmol/min/200 pmol protease) in [1] was below 0.1; in data set [4], 0.3; in data set [5] it was 0.2; in data set [6], 0.4.
The corresponding values for tissue plasminogen activator (TPA) are below 0.1, 0.04, below 0.1 and 0.4.
Turning to urokinase, the substrate cleavage rate (AMC release) (pmol/min/200 pmol protease) in data set [1], in data set [4] and in data set [5] was below 0.1 throughout.
